Data taken from patent US20020081280A1.
Where “and” joins values, the source holds several entries; their conditions need not be identical. Identical values can stand only once.

What was measured:
[1] = molecular target: coxsackievirus and adenovirus receptor (CAR) on human cells (human) (UniProt P78310); assay: cell-based or functional assay
[2] = molecular target: cellular integrins on HUVEC cells; assay: 125I-Ad5lucRGD binding to HUVEC cells at 4 °C, penton base at 100 µg/ml; competitor Ad5lucRGD

Sequence of UniProt P78310 (P78310 20-365): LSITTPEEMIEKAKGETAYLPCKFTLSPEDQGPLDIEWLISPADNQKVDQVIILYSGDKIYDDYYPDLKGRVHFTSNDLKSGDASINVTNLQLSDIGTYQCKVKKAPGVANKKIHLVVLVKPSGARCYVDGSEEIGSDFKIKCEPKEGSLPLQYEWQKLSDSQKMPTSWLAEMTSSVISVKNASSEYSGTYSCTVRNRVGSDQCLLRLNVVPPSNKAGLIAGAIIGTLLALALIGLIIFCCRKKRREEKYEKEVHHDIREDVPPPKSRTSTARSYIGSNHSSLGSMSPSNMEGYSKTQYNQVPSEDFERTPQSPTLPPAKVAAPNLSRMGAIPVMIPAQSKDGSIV

| Substance | blockade of luciferase gene transfer by knob competition, HeLa and SCCHN cell lines (FaDu, SCC-4, SCC-25) [1] [%] | gene transfer to SKOV3.ipl cells blocked by fiber knob [1] [%] | luciferase activity in 293 cells blocked by recombinant knob protein (100 µg/ml) [1] [%] | luciferase activity in SKOV3.ipl cells blocked by excess fiber knob [1] | luciferase activity in ovarian cancer ascites cells blocked by excess fiber knob [1] [%] | reduction of luciferase activity in CaOV-3 cells by fiber knob blockade, dose 3x10^6 PFU [1] [%] | reduction of luciferase activity in UCI-101 cells by the fiber knob block [1] | percent decrease of bound virus radioactivity [2] [%] |
| --- | --- | --- | --- | --- | --- | --- | --- | --- |
| AdCMVLuc virions (E1-deleted Ad5 vector with unmodified wild-type fibers) (from UniProt P11818 1-581) | > 90 | > 90 | 85 to 93 | 82% and 91% | 90 | 55 | 94% and 97% | – |
| recombinant human adenovirus serotype 2 penton base protein, expressed in Sf9 cells (from UniProt P03276 1-571) | – | – | – | – | – | – | – | 25 |
